Reference: the supplement of paper PMC12042874
± gives the uncertainty stated by the source.

Assay: amyloid nucleation score (Sup35N fusion, yeast selection) (log enrichment); library NNK2; higher = more nucleation; inactive = no reads after selection
Procedure, shortened: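 The nucleation score is the log enrichment of output over input reads, calculated with DiMSum and centred on the mode score of non-aggregating sequences. Sequences with under 100 input reads were excluded. Reads came from Illumina sequencing of plasmid inserts from psi-negative yeast expressing Sup35N fused to peptides of 20 random codons, induced 24 hours with 100 μM copper sulfate and grown 7 days at 30°C without adenine and uracil.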

| Substance | amyloid nucleation score |
| --- | --- |
| GFHLQMEEVASYFLEIRPFC | 0.02 ± 0.79 |
| GFICMVMDKCYYRGRNFVGV | -0.106 ± 0.44 |
| GFKDCV | 0.263 ± 0.22 |
| GFKILIEFWSATGRLQ | 3.97 ± 0.078 |
| GFPLWSAGNCFALNAGRDAG | 0.777 ± 0.19 |
| GFRTFRRGREWSLE | 0.714 ± 0.34 |
| GFSPSMECHVMEAHLDMRVR | 0.227 ± 0.21 |
| GFSVRVGVMTFDSFDWRVLF | 1.72 ± 0.15 |
| GFSVSARVMIDLPYVEVRFS | 0.07 ± 0.74 |
| GFVINFYLNGVALQRVILAF | inactive |
| GFWITVESNNTYNRFLDISC | 2.67 ± 0.089 |
| GFWVWMWPRSHCAGGPSLDL | 1.13 ± 0.4 |
| GGCGLH | 0.261 ± 0.4 |
| GGDVNGVSCYGGDVGLSAKG | 0.616 ± 0.25 |
| GGEIESIGFRLGCLSRRSES | -0.383 ± 0.49 |
| GGGYLCRVDYGSIDLTWLKS | -0.559 ± 0.76 |
| GGKFSVIGVGHLLDGEH | 1.14 ± 0.15 |
| GGLDLRIMR | 2.41 ± 0.081 |
| GGMYKSMRGWLTGCFVAWVV | 0.369 ± 0.34 |
| GGNCVVNSIFVDLAICYVRR | 9.818 ± 0.057 |
| GGNFLVCYVFDDSCHWIMMY | 4.56 ± 0.086 |
| GGNFYGGEYDMGGGSIRHYG | inactive |
| GGQEIAYILTSVSSLSNPMW | 3.24 ± 0.1 |
| GGSGSDYLSPSGIVEGYRLG | -0.663 ± 0.54 |
| GGSRTRSCQDRAHCSVGGM | 0.598 ± 0.39 |
| GGSSRQTHW | -0.375 ± 1.1 |

| Substance | amyloid nucleation score |
| --- | --- |
| GGTGVAV | 0.183 ± 0.34 |
| GGTQLRTG | -0.961 ± 1.1 |
| GHAIWSSIVFVGWNLRGDS | 0.065 ± 0.46 |
| GHGKPTGYYGDYENQTVLY | -0.25 ± 0.61 |
| GHSGTVSTQRVCPSSSLWYR | 0.462 ± 0.4 |
| GHVAWSNDSWERESFF | -0.989 ± 0.76 |
| GHVCKFHTLHWR | -1.17 ± 0.61 |
| GICVFCNSYWL | 8.843 ± 0.055 |
| GIDWFTTVMFPAIWVTDILL | 4.593 ± 0.044 |
| GIFCSVGMLTVCLLVRDKLV | inactive |
| GIIRC | 0.209 ± 0.5 |
| GIIWT | -0.078 ± 0.26 |
| GILYLSLYDFCV | -0.763 ± 1 |
| GISAHHALVTLMLMAIVGHY | 1.55 ± 0.55 |
| GIWITGAWTTSLLCIRTLLG | 0.631 ± 0.43 |
| GIWNLQYRREV | 0.596 ± 0.32 |
| GIYFIYLSM | 5.918 ± 0.059 |
| GKFQMS | -0.244 ± 0.56 |
| GKFYQMENSV | -1.27 ± 0.78 |
| GKGNAFVLNFSYGYRCVYHG | 6.398 ± 0.04 |
| GKGSRFRYSIGG | 0.943 ± 0.47 |
| GKIKIEGNDLIGGLQGRLRP | inactive |
| GKLAARTAINSLFCKLGRRP | -0.066 ± 0.63 |
| GKMTPLLVNQTVSYCMLSSM | 6.273 ± 0.035 |
| GKNMRYFRQTGCH | -0.39 ± 0.21 |
| GKSYPPHLHHDNNKAYRVLP | -0.178 ± 1.1 |

| Substance | amyloid nucleation score |
| --- | --- |
| GKTISNFLGMTTSCEFGR | -0.81 ± 1 |
| GKVGNNTLSVYGMDTT | inactive |
| GLCYKFVRFSYA | 2.16 ± 0.1 |
| GLGAFSSP | 0.247 ± 0.46 |
| GLGALVGVTLYRRTQQNMWG | 6.313 ± 0.056 |
| GLGLSFDVSVVPQDGYGIRL | -0.492 ± 1.1 |
| GLLEVIF | 0.119 ± 0.74 |
| GLLNMCINCGRLFASPGISG | -0.285 ± 0.35 |
| GLMGLYRRALSTLRRILFMR | -0.072 ± 0.63 |
| GLNQSSLCNGEMGYCRIIWR | -1.03 ± 1.1 |
| GLNYPAIWEARLKG | 0.703 ± 0.29 |
| GLPFLVESMSCPCDLDTVGW | 2.27 ± 0.23 |
| GLPSILVYL | -1.31 ± 0.78 |
| GLQFSATISYERPVWGGVLR | 4.64 ± 0.066 |
| GLRCRYPSRPVTCGLLWGCG | 0.089 ± 0.37 |
| GLREKDN | -0.036 ± 0.32 |
| GLRFC | inactive |
| GLRFVYLIYTGRS | -0.497 ± 0.64 |
| GLSIGYSKWETALGITLSNP | -0.864 ± 0.78 |
| GLSNFYVFAFYRVFFSLIWA | 3.3 ± 0.067 |
| GLSRVDPWVYQLPSMGSHDS | 0.706 ± 0.52 |
| GLTFRFGTGTSLSRRFDATV | 6.507 ± 0.045 |
| GLTPSISSLRCIGSRFGKFS | 0.86 ± 0.46 |
| GLVVTSNPSDMSVMELCLWF | -0.347 ± 0.3 |
| GMFIMQNGLFYRQSLVAWW | -0.995 ± 0.45 |
| GMGQQEVPNWGMATGCGYEE | 0.081 ± 1.1 |

| Substance | amyloid nucleation score |
| --- | --- |
| GMGVYYVSSFSLRLWNGMTV | 1.65 ± 0.13 |
| GMLKTLSMMHTLIWYFLWDT | -0.62 ± 0.79 |
| GMNLNLPTQTHTSVRHNRG | 2.75 ± 0.14 |
| GMNWGWRFVNIFY | 5.848 ± 0.031 |
| GMSERRWSCQLVGAVHDMAA | 1.17 ± 0.14 |
| GNADRF | -1.12 ± 0.63 |
| GNAQGSTFYVVPFIQYRVFM | 6.744 ± 0.035 |
| GNCLEYIVRNTIANKRSRML | -0.114 ± 1 |
| GNFWAFISRRQSRGFLDSAL | -0.412 ± 1.1 |
| GNLSVTAILWLMRYECLNLS | -0.431 ± 0.64 |
| GNLWGYECVYINKQICGSSR | 3.49 ± 0.05 |
| GNRIPVTRGLVKDRSKLVGV | 0.007 ± 1.1 |
| GNSGYPTV | 1.02 ± 0.24 |
| GPEWSSLGSKVRLHWINSM | 0.626 ± 0.8 |
| GPSMCFGEFKVYAEVSWSQA | 0.095 ± 0.34 |
| GPTSVRISPPGVCVLCPPSP | 0.133 ± 0.31 |
| GQACRMYTVSVFVILNLGYQ | 2.53 ± 0.076 |
| GQNLDRSVKGWCTASHTGSF | 0.554 ± 0.54 |
| GRENWELHIRYVR | 4.06 ± 0.063 |
| GRFLLSLATVSGLCTSRLEI | -0.169 ± 0.39 |
| GRIVRSVLSSIVCILMSYWM | 0.821 ± 0.31 |
| GRLNPPLLLRIRSVSYAIPV | 0.783 ± 0.58 |
| GRLSWFS | -0.624 ± 0.49 |
| GRRHVNFCSRTDYRAGPHRY | 0.112 ± 1.1 |
| GRTGFFYLGAKYVSHEGAGK | inactive |
| GRVVSSFSLKSDNFMMYFRI | -1.18 ± 1.1 |

| Substance | amyloid nucleation score |
| --- | --- |
| GRVWVW | 0.718 ± 0.57 |
| GRWLSFKFSDDRQRVRYRVH | -0.158 ± 0.63 |
| GSASSCGCMMWQCKAICPNS | -0.4 ± 0.63 |
| GSCNVMGRCRIFGLGFWGIV | inactive |
| GSCPRSDAKSAADCIQV | -0.177 ± 0.79 |
| GSGNT | 0.444 ± 0.56 |
| GSKRCSFRGLCIIYSVSMCS | 6.996 ± 0.044 |
| GSLKEAAGEYMVCRVRLSVG | 0.26 ± 0.46 |
| GSLTKSLSKTTQLR | inactive |
| GSPNLVSV | 0.401 ± 0.56 |
| GSRAFALSTCCFMKYGSGMG | 8.075 ± 0.078 |
| GSSNGRALLYCITLKIMGIV | 0.769 ± 0.4 |
| GSSWLRPALLVNAMIDWSRV | 0.934 ± 0.36 |
| GSWDFSGAIMGLSYSKTVYI | -1.18 ± 1.1 |
| GSYSNAIFIHKLKNKHCFQS | inactive |
| GTLELMHETWVPSLYPVRMQ | 0.571 ± 0.4 |
| GTLPYDNRTTYAFYLRVCSL | inactive |
| GTSLYGFSPTAHVRVSHRGE | 0.957 ± 0.47 |
| GTTMTPFPRKCFRSVILFVG | 1.1 ± 0.3 |
| GTYAKSMLSSKVVAG | 1.48 ± 0.18 |
| GTYRNIRVWCRFRWVFENGC | 0.11 ± 0.74 |
| GVARESRAGS | 4.96 ± 0.066 |
